From the nanobody polyreactivity screen of Harvey et al. (2022)

Assay: yeast display, Sf9 membrane polyspecificity reagent, FACS + sequencing; frameworks hold sequencing errors
Outline: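 A synthetic nanobody library was expressed on Saccharomyces cerevisiae BJ5465 by galactose induction for 36–48 hours. The library was stained for 1 hour at 4 °C with 10% biotinylated, detergent-solubilized Sf9 membrane reagent and enriched with streptavidin microbeads before FACS. Low and high (top ~1%) gates were set on anti-HA fluorescence for expression and streptavidin fluorescence for reagent binding, and each polyreactivity label reflects the gate of origin.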

Sequence	polyreactivity (PSR sort gate)
QVQLVESGGGLVQAGGSLRLSCAASGLIFRPYAIGWYRQAPGKERELVAGITSGGNTDYADSVKGRFTISRDNAKNTVYLQMNSLKPEDTAVYYCADYFIYGYWGQGTQVTVSS	low polyreactivity
QVQLVESGGGLVQAGGSLRLSCAASGLIFRPYAMGWYRQAPGKERELFAGISFRGDSTYYADSVKGRFTISRDNAKNTVYLQMNCLKPEDTAVYYCDADVYIYWPPDKLLGYDYWGQGSQVTVSS	low polyreactivity
QVQLVESGGGLVQAGGSLRLSCAASGLIFRRYAMGRNRQAHGKERELVAAISRSGGSTYYADSVKGRFTISRDNEKNTVYLQMNSLKPEDTAVYYCAADYAPVFWGDYKYDYWGQGTQVTVSS	high polyreactivity
QVQLVESGGGLVQAGGSLRLSCAASGLIFRVYAMGWYRQAPGKERELVAAISISDGTTNYADSVKGRFTISRDNAKNTVYLQMNSLKPEDTAVYYCAADYDFYDFSYQSWSEENYWGQGTQVTVSS	low polyreactivity
QVQLVESGGGLVQAGGSLRLSCAASGLIFRVYTMGWYRQAPGKERELVSAITGRGGRTYYADSVKGRFTISRDNAKNTVYLQMNSLKPEDTAVYYCATGGRYQQAAYTGYNYWGQGTQVTVSS	high polyreactivity
QVQLVESGGGLVQAGGSLRLSCAASGLIFRWYAMAWYRQAPGKERELVAAISRRGGTTNYADSVKGRFTISRDNAKNTVYLQMNTLKPEDTAVYYCAADYQSVGGAEYDYWGQGTQVTVSS	high polyreactivity
QVQLVESGGGLVQAGGSLRLSCAASGLIFRYNTMGWYRQAPGKERELVAAITSSGVRTYYADSVKGRFTISRDNAKNTVYLQMNSLKPEDTAVYYCAAEGKSYPWPWYFDYWGQGTQVTVSS	high polyreactivity
QVQLVESGGGLVQAGGSLRLSCAASGLIFRYYDMGWYRQAPGKERELVAAISSSGTRTYYADSVKGRFTISRENPKNTVYLQMNSLKPEDTSVYYCATENQNPTGGYWGQGTQVTVSS	high polyreactivity
QVQLVESGGGLVQAGGSLRLSCAASGLIFSPYAMGWYRQAPGKVREFVAAITSRGGTYYADSVKGRFTISRDNAKNTVYLQMNSLKPEDTAVYYCAARNNRYPLYNYWGQGTQVTVSS	low polyreactivity
QVQLVESGGGLVQAGGSLRLSCAASGLIFSRYTMGWNRQAPGKERELVAAISRSGTNTYYADSVKGRFTISRDNAKNTVYLQMNSLKPEDTAVYYCAARGYYRDYDSWGQGTQVTVSS	high polyreactivity
QVQLVESGGGLVQAGGSLRLSCAASGLIFSRYTMGWYRQAPGKERELVAAISLGGGRTYYADSVKGRFTISRDNAKNTVYLQMNSLKPEDTAVYYCAATRYYSSDYWGQGTQVTVSS	low polyreactivity
QVQLVESGGGLVQAGGSLRLSCAASGLIFSSYAMGWYRQAPGKERELVAAISGSGGSTYYADSEKGRFTISRDNAKNTVYLQMNSLKPEDTAVYYCAAELDDYWVVSEDSSGQGTQVTVSS	low polyreactivity
QVQLVESGGGLVQAGGSLRLSCAASGLIFSSYAMGWYRQAPGKERELVAAITGSGGRTYYADSVKGRFTISRDNAKNTVYLQMNSLKPEDTAVYYCAAKYPDPRYYTGYDYWGQGTQVTVSS	high polyreactivity
QVQLVESGGGLVQAGGSLRLSCAASGLIFSTNDMGWYRQAPGKERELVAAITSDVSTYYADSVKGRFTISRDNAKNTVYLQMNSLKPEDTAVYYCAKDDSGYINWRYDYWGQGTQVTVSS	low polyreactivity
QVQLVESGGGLVQAGGSLRLSCAASGLIFSTYAMGWYRQAPGKERELVAAINSGGGNTYYADSVKGRFTISRDNAKNTVYLQMNSLKPEDTAVYYCNAQWRRHPGIWHYGYWGQGTQVTVSS	low polyreactivity
QVQLVESGGGLVQAGGSLRLSCAASGLIFSWNAMGWYRQAPGKERELVASISYSGGRTYYADSVKGRFTISRDNAKNTVYLQMNSLKPEDTAVYYCAADTNATTDPEMDYWGQGTQVTVSS	low polyreactivity
QVQLVESGGGLVQAGGSLRLSCAASGLIFSWYDMGWYRQAPGKERELVDAITTDGDDTYYADSVKGRFTISRDNAKNTVYLQMKSLKPEDTAVYYCDAVSEVAIRYPDRDYDSWGQGTQVTVSS	low polyreactivity
QVQLVESGGGLVQAGGSLRLSCAASGLIFSYNAMGWYRQAPGKERELVATISYSGGTTYYADSVKGRFTISRDNAKNTVYLQMNSLKPEDTAVYYCAARTLYSPGRPWKWYNYGRYGYWGQGTQVTVSS	high polyreactivity
QVQLVESGGGLVQAGGSLRLSCAASGLIFSYYAMGWYRQAPGKERELVAAITGSGGSTYYADSVKGRFTISRDNAKNTVYLQMNSLKPEDTAVYYCAAGRYAYTLSRKYDYWGQGTQVTVSS	high polyreactivity
QVQLVESGGGLVQAGGSLRLSCAASGLIFSYYAMGWYRQAPGKETELVAGITRSGASTYADSVKGRFTISRDNAKNTVYLQMNSLKPEDTAVYYCAADWHYLGWFWQYSKYDYWGQGTQVTVSS	high polyreactivity
QVQLVESGGGLVQAGGSLRLSCAASGLIFSYYTMGWYRQAPGKERELVAAISSSAGSTYYADSVKGRCTISRDNAKNTVYCQMNSLKPEDTAVYYCNVRTLVQHHSSYSSRYESWGQGTHVTVSS	high polyreactivity
QVQLVESGGGLVQAGGSLRLSCAASGLIFTDYVMGWYRQAPGKEREFVAAITGSAGRTYYADSVKGRFTISRDNAKNTVYLQMNSLKPEDTAVYYCNADYWWWHEYDYWGQGTQVTVSS	high polyreactivity

Sequence	polyreactivity (PSR sort gate)
QVQLVESGGGLVQAGGSLRLSCAASGLIFTSNTMGWYRQAPGKERELVAAISRRGGNTYYADSVKGRFTISRDNAKNTVYLQMNSLKPEDTAVYYCAAVAYALGFASKEDYWGQGTQVTVSS	high polyreactivity
QVQLVESGGGLVQAGGSLRLSCAASGLIFTSYAMGWYRHAPGKERELVAAISTSGGRTYYADSVKGRFTISRDNAKNTVYVQMNSLKAEDTAVYYCYANWRYPYDYWGQGTQVTVSS	high polyreactivity
QVQLVESGGGLVQAGGSLRLSCAASGLIFTSYAMGWYRQAPGKERELVAAISTGGGRTYYADSVKGRFTISRDNAKNTVYLQMNSLKPEDTAVYYCAADSVTYGYDYWGQGTQVTVSS	high polyreactivity
QVQLVESGGGLVQAGGSLRLSCAASGLIFTSYAMGWYRQAPGKERELVAAISYSGGTTFYADSVKGRFTISRDNAKNTVYLQMNSLKPEDTAVYYCAADSLSTTHDTLGYDRDDYWGQGTQVTVSS	low polyreactivity
QVQLVESGGGLVQAGGSLRLSCAASGLIFTTYAMGWYRQAPGKERELVAAISSSGDSTYYADSVKGRFTISRDNAKNTVYLQMNSLKPEDTAVYYCAARYYYRGYEFGYWGQGTQVTVSS	high polyreactivity
QVQLVESGGGLVQAGGSLRLSCAASGLIFTYYAMGWYRQAPGKERELVAAITSGGTTNYADSVKGRFTISRDNAKNTVYLQMNSLKPEDTAVYYCAADYDTGSERYEYWGQGTQVTVSS	low polyreactivity
QVQLVESGGGLVQAGGSLRLSCAASGLIFVDNAMGWYRQAPGKERELVAAIDSGGRTYYADSVKGRFTISRDNAKNTVYLQMNSLKPEDTAVYYCAAPWRLFCLYDYWGQGTQVSVSS	low polyreactivity
QVQLVESGGGLVQAGGSLRLSCAASGLIFVNDMGLYRQAPGKEREFVAAITYSTGSTYYADSVKGRFTISRDNAKNTVYLQMNSLKPEDTAVYYCAKDRSGHGTERDYWGQGTQVTVSS	low polyreactivity
QVQLVESGGGLVQAGGSLRLSCAASGLIFVPYAMGWYRQAPGKERELVAAINSGATTYYADSVKGRFTISRDNAKNTVYLQMNSLKPEDTAVYYCAARSRFTESSRYYYWGQGTQVTVSS	high polyreactivity
QVQLVESGGGLVQAGGSLRLSCAASGLIFVRYAMGWYRQAPGKERELVAAITTGGRTYYADSVKGRFTISRDNAKNTVYLQMNSLKPEDTAVYYCAAQSFYGIYYGQQDYDYWGQGTQVTVSS	high polyreactivity
QVQLVESGGGLVQAGGSLRLSCAASGLIFVVYAMGWYRPAPGKERELVADISSGGRTSYADSVKGRFTISRDNAKNTVYLQMNSLKPEDTAVYYCNAYPVFNQYYGWRYDYWGQGTQVTVSS	low polyreactivity
QVQLVESGGGLVQAGGSLRLSCAASGLIFVWYAMGWYRQAPGKERELVAAISWSGGSTYYADSVKGRFTISRDNAKTTVYLQMNSLKPEDTAVYYCATDPFGYSYLLVDYNYWGQGTQVTVSS	low polyreactivity
QVQLVESGGGLVQAGGSLRLSCAASGLIFVYYAMGWYRQAPGKERELVAAITSRGGSTYYADSVKGRFTISRDNAKNTVYLQMNSLKPEDTAVYYCAAVYRHGAFPRYGYWGQGTQVTVSS	high polyreactivity
QVQLVESGGGLVQAGGSLRLSCAASGLIFVYYDMGWYRQAPGKERELVAAISSSGSTYYADSVKGRFTISRDNAKNTVYLQMNSLKPEDTAVYYCAAEYLYWPFGSNYWGQGTQVTVSS	high polyreactivity
QVQLVESGGGLVQAGGSLRLSCAASGLIFVYYTMGWYRQAPGKERELVARISQSGGTTYYADSVKRRFTISRDNAKNTVYLQLNSLKREDTAVYYCAAVYQLYYSGGRYYYWGQGSQVTVSS	high polyreactivity
QVQLVESGGGLVQAGGSLRLSCAASGLIFWGYAMGWYRQAPGKERELVAAISSSGGSTYYADSVKGRFTISRDNAKNTVYLQMNSLKPEDTAVYYCNADYTYYPGYDYWGQGTQVTVSS	low polyreactivity
QVQLVESGGGLVQAGGSLRLSCAASGLIFWYYAMGWYRQAPGKERELVAVITRSDASTYYADSVKGRFTISRDNAKNTVYVQMNSLKPEDTAVYYCAAYIRYGYSPWGYDYWGQGTQVSVSS	low polyreactivity
QVQLVESGGGLVQAGGSLRLSCAASGLIFYDNMGWYIQAPGKEREMVAAISSSGGSTSYADSVKGRFTISRDNAKNTVYLQMNSLKPEDTAVYYCAADSYPAYLGFVGFDYWGQGTQVTVSS	low polyreactivity
QVQLVESGGGLVQAGGSLRLSCAASGLIFYDNMGWYRQAPGKERELVAAISSSGGSTSYADSVKGRFTISRDNAKKTVYLQMNSLKPEDTAVYYCAAKWSHVRDGPKYDYWGQGTQVTVSS	low polyreactivity
QVQLVESGGGLVQAGGSLRLSCAASGLIFYDNMGWYRQAPGKERELVAAISSSGGSTSYADSVKGRFTISRDNAKNTVYLQMNSLKPEDTAVYFCAADSYPAYLGFVGFDYWGQGTQVTVSS	low polyreactivity
QVQLVESGGGLVQAGGSLRLSCAASGLIFYDNMGWYRQAPGNERELVAAITVSGGATYYADSVKGRFTISRDNAKNTVYLQMNSLKPEDTAVYYCARELLSPTYQRWYYYWGQGTQVTVSS	low polyreactivity
